According to US7148193B2, “Compounds that bind to growth hormone receptor” (Antyra, Inc., priority 1997, dated 2006):
Residue numbers refer to the chain shown, from its start.

How the values were obtained:
‘hu’ GHBP = target: T1, ‘hu’ GHBP (Rattus norvegicus, UniProt P16310, L61R); test: Species specificity of binding by ELISA and BIAcore, 'hu' GHBP; settings: in words
T1 construct: 1–48 of GHBP; The 3′ oligo used for this reaction encoded the mutation L43R (CTG→AGA); The second PCR reaction amplified the DNA encoding amino acids 38–260; 6xHis; made in house
T1 sequence (P16310 19-278 isoform P16310-2 L61R): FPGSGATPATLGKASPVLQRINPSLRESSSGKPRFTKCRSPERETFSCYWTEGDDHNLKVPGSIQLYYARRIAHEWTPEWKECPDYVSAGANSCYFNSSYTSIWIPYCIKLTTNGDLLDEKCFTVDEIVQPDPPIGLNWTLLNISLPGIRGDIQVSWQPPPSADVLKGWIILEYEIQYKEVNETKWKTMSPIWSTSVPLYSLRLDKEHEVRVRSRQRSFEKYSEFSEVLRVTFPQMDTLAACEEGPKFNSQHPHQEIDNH
Description: (§1) Wells were coated with either recombinant rGHBP or ‘hu’ GHBP (100 ng/well). Additions of H5 (SEQ ID NO:8) and H10 (SEQ ID NOS:9, 80, and 81) phage (10^10/well) and detection were made as described. […] Streptavidin chips were coated with H5 (SEQ ID NO:8) to 1100 RU as described and rGHBP or ‘hu’ GHBP (500 μg/ml) injected as 30 μl samples.
(§2) Growth hormone receptors from different species bind human GH as well as their own GH, however human GHR only binds human or monkey GH. […] The sequence of rGHBP was altered by PCR to create a “humanized” version (‘hu’ GHBP; FIG. 9A). Partially purified ‘hu’GHBP (FIG. 9B) was tested for binding using ELISA and BIAcore analysis. […] This was confirmed by BIAcore analysis (FIG. 10B).
(§3) The biotinylated control peptide (SEQ ID NO:10) was immobilized onto one flow cell of a SA-5 (streptavidin coated) sensor chip to a final density of 700 RU. On a second flow cell, either hGH (1100 RU final density), H5WT peptide (SEQ ID NO:8; 1100 RU final density), or bGH (730 RU final density) was immobilized. GHBP (either rat or humanized) was injected at a concentration of 500 μg/ml with a flow rate of 5 μl/min. Background binding to the control surface was subtracted prior to further analysis.

[1] = target: T2, ‘hu’ GHBP (humanized rat GHBP) (Rattus norvegicus, UniProt P16310, L61R); test: Phage ELISA binding and competition on 'hu' GHBP coated wells; settings: ELISA signal; for ELISA Competition, ‘hu’GHBP, +BSA: BSA 1 μM; for ELISA Competition, ‘hu’GHBP, +hGH: huGH 1 μM as competitor; for ELISA Competition, ‘hu’GHBP, none: no competitor
T2 construct: 1–48 of GHBP; The 3′ oligo used for this reaction encoded the mutation L43R (CTG→AGA); The second PCR reaction amplified the DNA encoding amino acids 38–260; 6xHis; made in house
T2 sequence (P16310 19-278 isoform P16310-2 L61R): T1 sequence (P16310 19-278 isoform P16310-2 L61R)
Description: For analysis of individual clones, colonies were picked and phage prepared as described above. Microtiter wells were coated and blocked as described above. Wells were coated with either rGHBP or a control IgG MAb. Phage resuspended in MPBS were added to duplicate wells (100 μl/well) and incubated at room temperature for 1 hr. The phage solution was then removed, and the wells were washed three times with PBS at room temperature. Anti-M13 antibody conjugated to horseradish peroxidase (Pharmacia Biotech) was diluted 1:3000 in MPBS and added to each well (100 μl/well). Incubation was for another hour at room temperature, followed by PBS washes as described. Color was developed by addition of ABTS solution (100 μl/well; Boehringer). Color development was stopped by adjusting each well to 0.5% SDS. Plates were analyzed at 405 nm using a SpectraMax 340 plate reader (Molecular Devices) and SoftMax Pro software. Data points were averaged after subtraction of appropriate blanks. A clone was considered “positive” if the A405 of the well was >2-fold over background.
Humanized GHBP (‘hu’ GHBP) contained the single amino acid change of rat GHBP amino acids L43 to R43, and was capable of binding human GH, as shown in FIG. 9. Direct immobilization of ‘hu’ GHBP was done as described earlier for panning of the secondary H5 library against rat GHBP and used inputs of ‘hu’ GHBP, prepared as described earlier of 100 μl per well of […] protein. Panning was performed with or without H10 peptide (SEQ ID NO:9; 30 μM) for 4 rounds, and 96 clones were picked.
(§4) Clones were tested for the presence of E-tag and binding to ‘hu’ GHBP, rGHBP, or BSA-coated wells. Those having specific GHBP binding (i.e., at least 2 fold greater binding to the GHBP than BSA) and with an E-tag positive signal were subjected to DNA sequencing. Three different clones were isolated and tested a second time against GHBP plus and minus GH (1 μM) or BSA (1 μM) coated wells as described. In these tests, huGH was used as competitor with ‘hu’ GHBP coated wells and bovineGH was used as a competitor with rat GHBP coated wells. […] The following open reading frame insertion including the DYKD (SEQ ID NO:79) amino terminal tag and up to the C-terminal E-tag was obtained for these clones; and is shown in Table III: […]

rGHBP [2] = target: T3, rGHBP (Rattus norvegicus, UniProt P16310); test: Phage ELISA binding and competition on rGHBP coated wells; settings: for ELISA Competition, rGHBP, +BSA / ELISA Competition, rGHBP, +bGH / ELISA Competition, rGHBP, none: ELISA signal; for ELISA Competition, rGHBP, +BSA: BSA 1 μM; for ELISA Competition, rGHBP, none: no competitor; for clone binding blocked by GH: GH 1 μM, bovine GH on rat GHBP wells, huGH on ‘hu’ GHBP wells
T3 construct: 1–48 of GHBP; The 3′ oligo used for this reaction encoded the mutation L43R (CTG→AGA); The second PCR reaction amplified the DNA encoding amino acids 38–260; 6xHis; made in house
T3 sequence (P16310 19-278 isoform P16310-2): T1 sequence (P16310 19-278 isoform P16310-2 L61R) with R43L
Description: For analysis of individual clones, colonies were picked and phage prepared as described above. Microtiter wells were coated and blocked as described above. Wells were coated with either rGHBP or a control IgG MAb. Phage resuspended in MPBS were added to duplicate wells (100 μl/well) and incubated at room temperature for 1 hr. The phage solution was then removed, and the wells were washed three times with PBS at room temperature. Anti-M13 antibody conjugated to horseradish peroxidase (Pharmacia Biotech) was diluted 1:3000 in MPBS and added to each well (100 μl/well). Incubation was for another hour at room temperature, followed by PBS washes as described. Color was developed by addition of ABTS solution (100 μl/well; Boehringer). Color development was stopped by adjusting each well to 0.5% SDS. Plates were analyzed at 405 nm using a SpectraMax 340 plate reader (Molecular Devices) and SoftMax Pro software. Data points were averaged after subtraction of appropriate blanks. A clone was considered “positive” if the A405 of the well was >2-fold over background. […]
These clones were next analyzed for binding to the receptor's active sites (FIG. 2B). Competitions of phage binding were done both with the cognate ligand (i.e., GH) and with a specific target-neutralizing MAb 2C3 (Wang, B. S., et al. Mol. Cellular Endocrinology, vol. 116, p. 223–226, 1996).
as §4

rGHBP [3] = target: T3, rGHBP; test: Species specificity of binding by ELISA and BIAcore, rGHBP; settings: in words
Description: as §1, §2, §3

[4] = target: T4, rat growth hormone receptor (Rattus norvegicus, UniProt P16310); test: Cell proliferation assay (WST-1) in FDC-1 cells stably transfected with rat growth hormone receptor; assay type: cell-based; settings: cells with 0.003 μM bovine GH, 18 h, at the concentrations tested
T4 construct: expressed in transfected cells; host or cells: FDC-1 cells
T4 sequence (P16310 19-638): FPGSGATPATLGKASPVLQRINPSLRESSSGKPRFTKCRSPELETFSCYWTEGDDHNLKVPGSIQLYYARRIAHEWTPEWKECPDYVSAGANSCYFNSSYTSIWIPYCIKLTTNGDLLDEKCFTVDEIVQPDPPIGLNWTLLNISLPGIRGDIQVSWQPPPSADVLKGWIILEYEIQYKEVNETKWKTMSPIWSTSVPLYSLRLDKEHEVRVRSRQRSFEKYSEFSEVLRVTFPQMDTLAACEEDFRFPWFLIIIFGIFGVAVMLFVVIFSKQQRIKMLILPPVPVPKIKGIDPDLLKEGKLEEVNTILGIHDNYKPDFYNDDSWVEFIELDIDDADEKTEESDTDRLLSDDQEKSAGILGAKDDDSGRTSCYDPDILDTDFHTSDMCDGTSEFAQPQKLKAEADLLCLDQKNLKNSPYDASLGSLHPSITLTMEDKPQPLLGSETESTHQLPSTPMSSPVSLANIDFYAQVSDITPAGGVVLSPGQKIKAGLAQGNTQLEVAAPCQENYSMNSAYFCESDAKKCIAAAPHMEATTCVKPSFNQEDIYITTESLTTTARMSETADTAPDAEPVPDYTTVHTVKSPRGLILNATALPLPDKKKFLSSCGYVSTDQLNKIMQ
Description: Cells transfected with rat GHR (50,000 cells per well) were incubated with either bovine GH, H5 peptide (SEQ ID NO:8), 447 peptide (SEQ ID NO:11) or control peptide (SEQ ID NO:10) for 18 h at 37° C. Experiments were done in triplicate. Background signal A450=0.15. […] Cells transfected with rat GHR (50,000 cells per well) containing […] bovine GH were incubated with either control peptide (SEQ ID NO:10), H5 peptide (SEQ ID NO:8) or 447 peptide (SEQ ID NO:11) for 18 h at 37° C. Proliferation was measured using WST-1 reagent. The “*” symbol corresponds to the A450 measurement for the cells incubated without GH.
Agonistic and antagonistic activities of the two peptides, H5WT (SEQ ID NO:8) and bP#447 ([…]), were tested in FDC-1 cells stably transfected with the gene encoding the rat growth hormone receptor. The resulting cell line required either IL-3 or GH for growth. The cells were grown in RPMI 1640 medium containing 10% FCS (fetal calf serum) and 20 units of IL-3 per ml. […] activity assays were performed in a total volume of 100 μl in 96 well plates (flat bottom). Cells were seeded at 50,000 cells/well in 50 μl RPMI 1640 (without IL-3) medium containing horse serum instead of FCS to reduce background. To duplicate wells, 50 μl of either growth hormone or peptides at different concentrations was added, followed by incubation for 18 h in a CO2 incubator. Assays to measure the antagonistic activity were performed in a total volume of 100 μl in 96 well plates. Either H5WT peptide (SEQ ID NO:8), bP#447 peptide (SEQ ID NO:11), or control peptide (SEQ ID NO:10) was added to cells containing 0.003 μM of bovine GH and incubated at 37° C. for 18 h in a CO2 incubator. Proliferation assays were performed using WST-1 reagent. The WST-1 tetrazolium salt (light red color) is cleaved to formazan (dark red color) by the succinate-tetrazolium reductase system, which is active only in viable cells. […] Ten microliters of WST-1 reagent was added and the plates incubated for 1–4 h 37° C. Proliferation was measured by absorbance at 450 nm.

| Substance | binding to ‘hu’ GHBP (‘hu’ GHBP) | ELISA Competition, ‘hu’GHBP, +BSA [1] | ELISA Competition, ‘hu’GHBP, +hGH [1] | ELISA Competition, ‘hu’GHBP, none [1] | ELISA Competition, rGHBP, +BSA (rGHBP [2]) | ELISA Competition, rGHBP, +bGH (rGHBP [2]; bovine GH 1 μM as competitor) | ELISA Competition, rGHBP, none (rGHBP [2]) | phage binding to rGHBP blocked by GH and MAb 2C3 (rGHBP [2]; competition ELISA of phage binding) | binding to rGHBP (rGHBP [3]) | binding to ‘hu’ GHBP (‘hu’ GHBP; listed as clone 13) | ELISA Competition, rGHBP, +BSA (rGHBP [2]; phage concentrated 15×) | ELISA Competition, rGHBP, +bGH (rGHBP [2]; bovine GH 1 μM, phage concentrated 15×) | ELISA Competition, rGHBP, none (rGHBP [2]; phage concentrated 15×) | clone binding blocked by GH (rGHBP [2]) | binding to rGHBP (rGHBP [3]; listed as clone 13) | antagonistic activity [4] |
| --- | --- | --- | --- | --- | --- | --- | --- | --- | --- | --- | --- | --- | --- | --- | --- | --- |
| H10: frame shifted phage clone without ORF, SEQ ID NOS:9, 80 and 81, binds rGHBP outside the active site (WLGCYFVAGVVACV; H10 peptide) | bound to rGHBP and ‘hu’ GHBP | 0.29 | 0.28 | 0.30 | 0.52 | 0.48 | 0.52 | not blocked by either GH or MAb 2C3 | bound to rGHBP | – | – | – | – | – | – | – |
| DYKDAQWWTTlGSNMFVLPGLRGCTFLPPMQCDREIRVFLVVVH (DYKDAQWWTTIGSNMFVLPGLRGCTFLPPMQCDREIRVFLVVVH; phage displayed; clone 13 peptide) [compound 13] | bind to both forms of GHBP | – | – | – | – | – | – | – | bind to both forms of GHBP | bound to both human and rat forms of GHBP | 1.98 | 0.29 | 2.01 | blocked by GH | bound to both human and rat forms of GHBP | – |
| DYKDALLHRSRCVRWGKWVCCLPPVGVGGAQANQGMSVQRFRHC (phage displayed; clone hh peptide) | bind to both forms of GHBP | 0.37 | 0.35 | 0.37 | 0.53 | 0.52 | 0.55 | – | bind to both forms of GHBP | – | – | – | – | only clone 13 was blocked by GH | – | – |
| Control peptide: SEQ ID NO:10, contains same amino acids as H5 in randomized order (DYKDWCLTLQPLVWASGGGYCA; control peptide) [reference compound] | – | – | – | – | – | – | – | – | – | – | – | – | – | – | – | no antagonistic activity |
